{
  "source": "patent US12338277",
  "experiment_in_all_cases": "cell-based or functional assay",
  "key": {"[1]": {"molecular_target": "HIV-1 envelope spike of pseudovirus 6535.3 (HIV-1)"}, "[2]": {"molecular_target": "HIV-1 Env of pseudovirus Q259.d2.17 (HIV-1)"}, "[3]": {"molecular_target": "HIV-1 envelope of pseudovirus T257-31 (HIV-1)"}, "[4]": {"molecular_target": "HIV-1 envelope of pseudovirus 0260.v5.c36 (HIV-1)"}, "[5]": {"molecular_target": "HIV-1 envelope of pseudovirus 6041.v3.c23 (HIV-1)"}, "[6]": {"molecular_target": "HIV-1 Env of pseudovirus Ce1172_H1 (HIV-1)"}, "[7]": {"molecular_target": "HIV-1 Env of pseudovirus 928-28 (HIV-1)"}, "[8]": {"molecular_target": "HIV-1 Env of pseudovirus ZM109F.PB4 (HIV-1)"}, "[9]": {"molecular_target": "HIV-1 envelope of pseudovirus 211-9 (HIV-1)"}, "[10]": {"molecular_target": "HIV-1 envelope of pseudovirus X1193_c1 (HIV-1)"}, "[11]": {"molecular_target": "HIV-1 envelope of pseudovirus BF1266.431a (HIV-1)"}, "[12]": {"molecular_target": "HIV-1 envelope of pseudovirus C4118.c09 (HIV-1)"}, "[13]": {"molecular_target": "HIV-1 envelope of pseudovirus 9004SS_A3_4 (HIV-1)"}, "[14]": {"molecular_target": "HIV-1 Env of pseudovirus 6041.v3.c23 (HIV-1)"}, "[15]": {"molecular_target": "HIV-1 envelope of pseudovirus 6952.v1.c20 (HIV-1)"}, "[16]": {"molecular_target": "HIV-1 Env of pseudovirus T257-31 (HIV-1)"}, "[17]": {"molecular_target": "HIV-1 envelope of pseudovirus CNE21 (HIV-1)"}, "[18]": {"molecular_target": "HIV-1 envelope of pseudovirus 7030102001E5(Rev-) (HIV-1)"}, "[19]": {"molecular_target": "HIV-1 envelope of pseudovirus 3817.v2.c59 (HIV-1)"}, "[20]": {"molecular_target": "HIV-1 Env of pseudovirus CNE21 (HIV-1)"}, "[21]": {"molecular_target": "HIV-1 Env of pseudovirus A07412M1.vrc12 (HIV-1)"}, "[22]": {"molecular_target": "HIV-1 Env of pseudovirus CNE5 (HIV-1)"}, "[23]": {"molecular_target": "HIV-1 envelope of pseudovirus A07412M1.vrc12 (HIV-1)"}, "[24]": {"molecular_target": "HIV-1 Env of pseudovirus Ce0682_E4 (HIV-1)"}, "[25]": {"molecular_target": "HIV-1 Env of pseudovirus PVO.4 (HIV-1)"}, "[26]": {"molecular_target": "HIV-1 Env of pseudovirus Q23.17 (HIV-1)"}, "[27]": {"molecular_target": "HIV-1 envelope of pseudovirus 6811.v7.c18 (HIV-1)"}, "[28]": {"molecular_target": "HIV-1 envelope of pseudovirus RHPA4259.7 (HIV-1)"}, "[29]": {"molecular_target": "HIV-1 Env of pseudovirus 6540.v4.c1 (HIV-1)"}, "[30]": {"molecular_target": "HIV-1 Env of pseudovirus CAAN5342.A2 (HIV-1)"}, "[31]": {"molecular_target": "HIV-1 Env of pseudovirus 3817.v2.c59 (HIV-1)"}, "[32]": {"molecular_target": "HIV-1 Env of pseudovirus Du172.17 (HIV-1)"}, "[33]": {"molecular_target": "HIV-1 Env of pseudovirus CAP45.2.00.G3 (HIV-1)"}, "[34]": {"molecular_target": "HIV-1 Env of pseudovirus 3365.v2.c2 (HIV-1)"}, "[35]": {"molecular_target": "HIV-1 envelope of pseudovirus HIV-0013095-2.11 (HIV-1)"}, "[36]": {"molecular_target": "HIV-1 envelope spike of pseudovirus SS1196.1 (HIV-1)"}, "[37]": {"molecular_target": "HIV-1 Env of pseudovirus WITO4160.33 (HIV-1)"}, "[38]": {"molecular_target": "HIV-1 envelope of pseudovirus ZM249M.PL1 (HIV-1)"}, "[39]": {"molecular_target": "HIV-1 envelope of pseudovirus X1632_S2_B10 (HIV-1)"}, "[40]": {"molecular_target": "HIV-1 envelope of pseudovirus 1054_07_TC4_1499 (HIV-1)"}, "[41]": {"molecular_target": "HIV-1 Env of pseudovirus R1166.c01 (HIV-1)"}, "[42]": {"molecular_target": "HIV-1 envelope of pseudovirus Ce703010054_2A2 (HIV-1)"}, "[43]": {"molecular_target": "HIV-1 Env of pseudovirus 6480.v4.c25 (HIV-1)"}, "[44]": {"molecular_target": "HIV-1 Env of pseudovirus 6952.v1.c20 (HIV-1)"}, "[45]": {"molecular_target": "HIV-1 Env of pseudovirus 0815.v3.c3 (HIV-1)"}, "[46]": {"molecular_target": "HIV-1 envelope of pseudovirus 231965.c01 (HIV-1)"}, "[47]": {"molecular_target": "HIV-1 Env of pseudovirus 3103.v3.c10 (HIV-1)"}, "[48]": {"molecular_target": "HIV-1 Env of pseudovirus BJOX025000.01.1 (HIV-1)"}, "[49]": {"molecular_target": "HIV-1 envelope of pseudovirus 3016.v5.c45 (HIV-1)"}, "[50]": {"molecular_target": "HIV-1 Env of pseudovirus 6240_08_TA5_4622 (HIV-1)"}},
  "data": [
    {"substance": "10-1074 (antibody)", "values": [
      {"measurement": "IC50 (TZM-bl neutralization assay)", "setting": "[1]", "result": 0.007, "unit": "µg/mL"},
      {"measurement": "IC80 (TZM-bl neutralization assay)", "setting": "[1]", "result": 0.044, "unit": "µg/mL"},
      {"measurement": "IC80 (TZM-bl neutralization)", "setting": "[2]", "result": "> 50", "unit": "µg/mL"},
      {"measurement": "IC50 (TZM-bl neutralization)", "setting": "[3]", "result": "> 50", "unit": "µg/mL"},
      {"measurement": "IC50 (TZM-bl neutralization)", "setting": "[4]", "result": 0.099, "unit": "µg/mL"},
      {"measurement": "IC50 (TZM-bl neutralization)", "setting": "[5]", "result": "> 50", "unit": "µg/mL"},
      {"measurement": "IC80 (TZM-bl neutralization)", "setting": "[6]", "result": 0.166, "unit": "µg/mL"},
      {"measurement": "IC80 (TZM-bl neutralization)", "setting": "[7]", "result": 4.7, "unit": "µg/mL"},
      {"measurement": "IC80 (TZM-bl neutralization)", "setting": "[8]", "result": "> 50", "unit": "µg/mL"},
      {"measurement": "IC50 (TZM-bl neutralization)", "setting": "[9]", "result": 0.112, "unit": "µg/mL"},
      {"measurement": "IC50 (TZM-bl neutralization)", "setting": "[10]", "result": 0.083, "unit": "µg/mL"},
      {"measurement": "IC50 (TZM-bl neutralization)", "setting": "[11]", "result": "> 50", "unit": "µg/mL"},
      {"measurement": "IC50 (TZM-bl neutralization)", "setting": "[12]", "result": "> 50", "unit": "µg/mL"},
      {"measurement": "IC50 (TZM-bl neutralization)", "setting": "[13]", "result": 0.011, "unit": "µg/mL"},
      {"measurement": "IC80 (TZM-bl neutralization)", "setting": "[14]", "result": "> 50", "unit": "µg/mL"},
      {"measurement": "IC50 (TZM-bl neutralization)", "setting": "[15]", "result": 0.037, "unit": "µg/mL"},
      {"measurement": "IC80 (TZM-bl neutralization)", "setting": "[16]", "result": "> 50", "unit": "µg/mL"},
      {"measurement": "IC50 (TZM-bl neutralization)", "setting": "[17]", "result": 0.087, "unit": "µg/mL"},
      {"measurement": "IC50 (TZM-bl neutralization)", "setting": "[18]", "result": 0.006, "unit": "µg/mL"},
      {"measurement": "IC50 (TZM-bl neutralization)", "setting": "[19]", "result": 3.15, "unit": "µg/mL"},
      {"measurement": "IC80 (TZM-bl neutralization)", "setting": "[20]", "result": 0.181, "unit": "µg/mL"},
      {"measurement": "IC80 (TZM-bl neutralization)", "setting": "[21]", "result": 0.048, "unit": "µg/mL"},
      {"measurement": "IC80 (TZM-bl neutralization)", "setting": "[22]", "result": "> 50", "unit": "µg/mL"},
      {"measurement": "IC50 (TZM-bl neutralization)", "setting": "[23]", "result": "< 0.001", "unit": "µg/mL"},
      {"measurement": "IC80 (TZM-bl neutralization)", "setting": "[24]", "result": "> 50", "unit": "µg/mL"},
      {"measurement": "IC80 (TZM-bl neutralization)", "setting": "[25]", "result": 0.36, "unit": "µg/mL"},
      {"measurement": "IC80 (TZM-bl neutralization)", "setting": "[26]", "result": 0.021, "unit": "µg/mL"},
      {"measurement": "IC50 (TZM-bl neutralization)", "setting": "[27]", "result": 0.002, "unit": "µg/mL"},
      {"measurement": "IC50 (TZM-bl neutralization)", "setting": "[28]", "result": 0.021, "unit": "µg/mL"},
      {"measurement": "IC80 (TZM-bl neutralization)", "setting": "[29]", "result": "> 50", "unit": "µg/mL"},
      {"measurement": "IC80 (TZM-bl neutralization)", "setting": "[30]", "result": 0.036, "unit": "µg/mL"},
      {"measurement": "IC80 (TZM-bl neutralization)", "setting": "[31]", "result": 14.9, "unit": "µg/mL"},
      {"measurement": "IC80 (TZM-bl neutralization)", "setting": "[32]", "result": 0.43, "unit": "µg/mL"},
      {"measurement": "IC80 (TZM-bl neutralization)", "setting": "[33]", "result": "> 50", "unit": "µg/mL"},
      {"measurement": "IC80 (TZM-bl neutralization)", "setting": "[34]", "result": 0.45, "unit": "µg/mL"},
      {"measurement": "IC50 (TZM-bl neutralization)", "setting": "[35]", "result": "> 50", "unit": "µg/mL"},
      {"measurement": "IC50 (TZM-bl neutralization assay)", "setting": "[36]", "result": 0.01, "unit": "µg/mL"},
      {"measurement": "IC80 (TZM-bl neutralization assay)", "setting": "[36]", "result": 0.127, "unit": "µg/mL"},
      {"measurement": "IC80 (TZM-bl neutralization)", "setting": "[37]", "result": 2.11, "unit": "µg/mL"},
      {"measurement": "IC50 (TZM-bl neutralization)", "setting": "[38]", "result": "> 50", "unit": "µg/mL"},
      {"measurement": "IC50 (TZM-bl neutralization)", "setting": "[39]", "result": "> 50", "unit": "µg/mL"},
      {"measurement": "IC50 (TZM-bl neutralization)", "setting": "[40]", "result": 0.129, "unit": "µg/mL"},
      {"measurement": "IC80 (TZM-bl neutralization)", "setting": "[41]", "result": "> 50", "unit": "µg/mL"},
      {"measurement": "IC50 (TZM-bl neutralization)", "setting": "[42]", "result": "> 50", "unit": "µg/mL"},
      {"measurement": "IC80 (TZM-bl neutralization)", "setting": "[43]", "result": 0.041, "unit": "µg/mL"},
      {"measurement": "IC80 (TZM-bl neutralization)", "setting": "[44]", "result": 0.138, "unit": "µg/mL"},
      {"measurement": "IC80 (TZM-bl neutralization)", "setting": "[45]", "result": 0.138, "unit": "µg/mL"},
      {"measurement": "IC50 (TZM-bl neutralization)", "setting": "[46]", "result": "> 50", "unit": "µg/mL"},
      {"measurement": "IC80 (TZM-bl neutralization)", "setting": "[47]", "result": 0.101, "unit": "µg/mL"},
      {"measurement": "IC80 (TZM-bl neutralization)", "setting": "[48]", "result": "> 50", "unit": "µg/mL"},
      {"measurement": "IC50 (TZM-bl neutralization)", "setting": "[49]", "result": "> 50", "unit": "µg/mL"},
      {"measurement": "IC80 (TZM-bl neutralization)", "setting": "[50]", "result": 0.306, "unit": "µg/mL"}
    ]}
  ]
}
